According to the supplement of paper PMC9170038:

System: MS2 coat protein
Experiment: apparent KD of MS2 coat protein; designed switch direction (-1 OFF switch, 1 ON switch): -1; higher = weaker reporter binding
In short: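 Normalised cluster fluorescence was curve-fitted, and each design's median over clusters is its apparent KD. Before this, SNAP-549-labelled MS2 coat protein was titrated from 0.7 or 1.5 nM, doubling to 3 µM, over RNA switches transcribed on Illumina chips by stalled E. coli RNA polymerase. Titrations had no input, 200 uM small-molecule ligand, or an oligonucleotide input, and steps lasted 0.8–1.5 h (lowest) to 10–20 min (highest).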

[1] = input ligand: microRNA oligo, concentration not stated
[2] = Eterna round: R95, input ligand: FMN 200 uM
[3] = Eterna round: R95, input ligand: microRNA oligo, concentration not stated
[4] = Eterna round: R95, input ligand: none

Sequence	apparent KD of MS2 coat protein (input ligand: FMN 200 uM)	apparent KD of MS2 coat protein [1]	apparent KD of MS2 coat protein (input ligand: none)	apparent KD of MS2 coat protein [2]	apparent KD of MS2 coat protein [3]	apparent KD of MS2 coat protein [4]
ACAUGAGGAGAAGGAUAUCUUUAGAGGGUUACCAGAGAAGGUCUAACAUGAGGAUCACCCAUGUCAUGAGGGUCUUGAAUGUUG [10th something] (Eterna round: R96, puzzle: Exclusion NG 1)	145 nM	151 nM	140 nM			
CUAGCGAUUGUAGGAUAUCGGACUGUUUCAGUCUGAGAAGGACAUGAGGAUCACCCAUGUGAAGCUACGUGAGUAGCACGCUAG [JL ENG1 3.84] (Eterna round: R96, puzzle: Exclusion NG 1)	46.1 nM	15.4 nM	24.5 nM			
AGUUCAAGGAAUUCUUCUGACAUGAGGAUCACCCAUGUGCUUUGCAAGUGUUGCUCGUCGCCUAGAACGUUAAGUAA [Eternabot (Original) Solution 32] (Eterna round: R97, puzzle: Sensor, turn-off variant 1)	158 nM		225 nM			
AAUACAAGCUAUUGAUCCCACAUGAGGAUCACCCAUGUGCCUGGCCGUGAGACCAGGUUUACAAUAGCUCGUCUUAU [Sensor-V1 #47] (Eterna round: R97, puzzle: Sensor, turn-off variant 1)	23.5 nM		23.5 nM			
CUGUAAAGGAAGGAUAUGCUAGACGAAAGUCUAGCAGAAGGUCCUACAUGAGGAUCACCCAUGUGGCCUCACAG [Mat - Exclusion 6 - Eli Mod - D50] (Eterna round: R97, puzzle: Exclusion 6)	1500 nM		274 nM			
ACAUGUACAGAGGAUAUGCGCCUUGGCAAUGGUGUAGAAGGCUGAACAUGAGGAUCACCCAUGUGCAAUCCAAC [EX6 A.5] (Eterna round: R97, puzzle: Exclusion 6)	378 nM		55.4 nM			
CUUAGCCUAAAAUCACGCAAGCCUUUUGCUUGUCUUAAGACAUGAGGAUCACCCAUGUCCGGGCUGAACUUAUGGAA [Geanon] (puzzle: Sensor v3, turn-off variant 2)				17.4 nM	33.3 nM	16.6 nM
GGUUGGCGAGGAUAUACAUGAGGAUCACCCAUGUGAGAGAAAAAAGUGCGGAAGAAAAGUAGAAGGCGCUGACG [salish99_ex3_r3_029] (puzzle: Exclusion 3)				82.7 nM	25.1 nM	25.7 nM
ACAAGCUUUUUGCUCGAAGAGUAGAAACGUGAGAGCGAAACAUGAGGAUCACCCAUGUAAAGGCAGUAGGUGAAGAU [JR_SV3TOV2_Sub024] (puzzle: Sensor v3, turn-off variant 2)				39.8 nM	57.4 nM	57.2 nM
AUGUUACUCUGAGGAUAUUGUUUAUUCUUCUCACAUGAGGAUCACCCAUGUUUCCGUGUUUACCGCAAGAAGGCAGUUUUGUUU [JR_ExcNG2_Sub028] (Eterna round: R96, puzzle: Exclusion NG 2)	41.1 nM	29 nM	31.8 nM			
ACGUUCAUUGAACAUGAGGAUCACCCAUGUGGCCUCCGGGUGGAGGAUAUGCACCAGGCCGAGGUGUAGAAGGCCAUAUACCGA [Riraed] (Eterna round: R96, puzzle: Exclusion NG 3)	155 nM	49 nM	81.4 nM			
AGACGUUAACAGGAUAUGGCCCUGCCGCAAGCGUUAGAAGGGUUGACAUGAGGAUCACCCAUGUGUGAUAGAAG [Eternabot (L1) Solution 95] (Eterna round: R97, puzzle: Exclusion 6)	217 nM		316 nM			
GUGUGCUGAGGAUAUACACAGGAAUAGAAGAUAAGAUAAUCACAUGAGGAUCACCCAUGUAGAAGGCAGAGUGU [Excluse me!! 17 - Jieux - Exclusion 2] (puzzle: Exclusion 2)					13.9 nM	
AUUUUGUCAGGAUAUUAGUAGUAAAUGAAUAAAAUUAUUACUGAGAAGGGACAUGAGGAUCACCCAUGUGUCUU [Mat - Exclusion 4 - Eli Mod - D9] (Eterna round: R97, puzzle: Exclusion 4)	24.1 nM		23 nM			
GAUUAUGCGAGCUUUAGGGACAUGAGGAUCACCCAUGUUCGUCUUAUUAGUCUAGAUGCACUGACAUACCUAAAUCU [JMF 78] (puzzle: Sensor v3, turn-off variant 1)				15 nM	19.6 nM	14.4 nM
GCCUGCUGGCGAGGAUAUCCUGUGCGGUUCCGGCUCGUGUCUGUUACAUGAGGAUCACCCAUGUGGGAGAAGGUGUCUGUGGCC [Design 99] (Eterna round: R96, puzzle: Exclusion NG 2)	17.7 nM	15.7 nM	22.4 nM			
UCUGCCGCCGUGAGGAUAUGCCCGCGCGAACGCGGGCAGAAGGCACAUGAGGAUCACCCAUGUCCCGCGGUUUU [salish99_bmx4_r4_132] (Eterna round: R97, puzzle: Brourd's mod of Exclusion 4)	34.7 nM		17.2 nM			

Sequence	apparent KD of MS2 coat protein (input ligand: FMN 200 uM)	apparent KD of MS2 coat protein [1]	apparent KD of MS2 coat protein (input ligand: none)	apparent KD of MS2 coat protein [2]	apparent KD of MS2 coat protein [3]	apparent KD of MS2 coat protein [4]
GAUCCUAGUGUCAGGAUAUGCGAACAAACGCCAAAGCAGAAGGGACUUGAGGAUCACCCAAGUCGCGAUGCGAC [Arbiaran] (Eterna round: R97, puzzle: Brourd's mod of Exclusion 4)	257 nM		45.1 nM			
CAAGAACAGGUCAGGAUAUGGCAAAUAAAUAACAACCAGAAGGGACUUGAGGAUCACCCAAGUUUAGAAGGGUA [Tebeorus] (Eterna round: R97, puzzle: Brourd's mod of Exclusion 4)	221 nM		39.4 nM			
GUGGUACAUGAGGAUCACCCAUGUAAGGAUAUAGUCGGCUGGUGGUCGCGGGUGGUGGCUAGAAGGUGCGUGCG [-19.6, -18.2 kcal, A 19%] (Eterna round: R97, puzzle: Exclusion 1)	101 nM		114 nM			
UUAUGGCGAGAGGAUAUUCUGCUACGGCCCGGAGAAGAAGGUUUGACAUGAGGAUCACCCAUGUGGUCGCUCCU [Eternabot (L2) Solution 29] (Eterna round: R97, puzzle: Exclusion 6)	138 nM		238 nM			
CACCUGAAAGGAGGAUAUCUUACAUGAGGAUCACCCAUGUAAUAAAUGAGAAUUUCGAAUGUAAUAGAGAAGGCCUGAAAAGGC [Ostracism 85 - Jieux - Exclusion NG 2] (Eterna round: R96, puzzle: Exclusion NG 2)	30.6 nM	25 nM	34.4 nM			
GCUGGACAAGGAUAUACAUGAGGAUCACCCAUGUGAUCAGCAGUCCUCGGACUGCAAUGUAGAAGGUGUCCAGC [E3/1-C2] (Eterna round: R97, puzzle: Exclusion 3)	38.9 nM		198 nM			
ACAUGAGGAUCACCCAUGUAAACAUGAUGGCUGAUGUAGAGCUAGGAUAUGAGUGAAUAUCUAUCUCAGAAGGAGCUUGACUGG [Deportation 46 - Jieux - Exclusion NG 3] (Eterna round: R96, puzzle: Exclusion NG 3)	20 nM	15.8 nM	24.9 nM			
UCGCUGCGAGGAUAUACAUGAGGAUCACCCAUGUGCGGGUCCGGGUCUUUGUCCAUUAGUAGAAGGCGCAGUGA [JL Laongeedie mod 5] (puzzle: Exclusion 3)					225 nM	
UUUAAUUUUUUUUUUUUACAAGCUUUUUGCUCGUCUUAUACAUGAGGAUCACCCAUGUGAAUGGGAGGUAAAUUAUC [JMF 73] (puzzle: Sensor v3, turn-off variant 2)				175 nM	192 nM	116 nM
GCUAGGCAUGUCAGGAUAUGCAGAUCCUUGGAUCUGCAGAAGGGACAUGAGGAUCACCCAUGUGCCAACCUAGC [Mat - Exclusion 4 - JL Mod - D11] (Eterna round: R97, puzzle: Brourd's mod of Exclusion 4)	609 nM		47 nM			
AUUUAAUUUAAUAAGAUCACAUGAGGAUCACCCAUGUUAUAAUAGGAUAUCAGCUCGAUUAGAGCUGAGAAGGAUUAUAACAUG [ExNG3/9-A1] (Eterna round: R96, puzzle: Exclusion NG 3)	35.3 nM	20.1 nM	28.8 nM			
UUGUUACAUGAGGAUCACCCAUGUGAGGAUAUGGUUCAGUACUGUCAUGUCAAGUACUCCAGAAGGCACAUGUU [1st #30] (Eterna round: R97, puzzle: Exclusion 1)	566 nM		508 nM			
AAGAAACAUGAGGAUCACCCAUGUCAGGAUAUCCGAAAAGAAAAGAAAAGAAAAGAAAGGAGAAGGGACAAAAG [Default title] (puzzle: Exclusion 1)				40.7 nM	26.6 nM	76 nM
UAUUAGCAAGCAGGAUCCCACAUGAGGAUCACCCAUGUGCUCGUCUUAUAAGGUACUGUGACGAAAGUCACGGUACC [Sensor 3, v1 - 90] (puzzle: Sensor v3, turn-off variant 1)				81.3 nM	186 nM	90.9 nM
GGCUGACGCGGUAGGCCUUACAUGAGGAUCACCCAUGUCGAUGCCAUUCCAAAACACGGGUUUGAGGUUCGUCAUUG [Eternabot (L1) Solution 46] (Eterna round: R97, puzzle: Sensor, turn-off variant 1)	99.7 nM		100 nM			
GGUUGUCGAGGAUAUACUAGGGACCGAUCGAUCGGAACUUCACAUGAGGAUCACCCAUGUAGAAGGCGACAAUC [Eternabot (L1) Solution 57] (Eterna round: R97, puzzle: Exclusion 2)	116 nM		174 nM			
